Reference: US20190060480A1 (NATIONAL CANCER CENTER JAPAN, published 2019)
Values belong to the binder of their own block, whether it stands above or below them.

What was measured:
[1] = molecular target: T1, human transmembrane protein 180 (TMEM-180) (human, UniProt Q14CX5 1-517); assay: FACS on cancer-derived cell lines (Table 23)
T1 construct: Membrane protein; also called TMET-180
T1 sequence: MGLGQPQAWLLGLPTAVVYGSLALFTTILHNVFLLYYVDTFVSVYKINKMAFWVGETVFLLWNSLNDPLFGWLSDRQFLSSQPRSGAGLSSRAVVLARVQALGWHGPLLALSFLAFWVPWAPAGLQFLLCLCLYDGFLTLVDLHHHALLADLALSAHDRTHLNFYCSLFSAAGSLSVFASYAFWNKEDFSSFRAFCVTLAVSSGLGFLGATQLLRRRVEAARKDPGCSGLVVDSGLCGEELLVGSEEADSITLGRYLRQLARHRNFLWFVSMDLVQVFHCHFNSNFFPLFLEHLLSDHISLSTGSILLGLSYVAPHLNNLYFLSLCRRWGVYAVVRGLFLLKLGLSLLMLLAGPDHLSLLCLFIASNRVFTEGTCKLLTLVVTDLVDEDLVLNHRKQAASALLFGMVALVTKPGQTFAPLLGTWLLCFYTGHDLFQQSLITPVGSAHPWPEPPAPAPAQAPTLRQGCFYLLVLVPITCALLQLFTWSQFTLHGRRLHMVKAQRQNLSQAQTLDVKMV

[2] = molecular target: T1, human transmembrane protein 180 …; assay: flow cytometry on cancer cell lines, hybridoma supernatant
Description: The plate was centrifuged for 3 minutes at 440×g and 4° C. followed by removing the supernatant, adding antibody-producing hybridoma culture supernatant or antibody solution to the cell pellet at 50 μL/well and suspending therein. After allowing to react for 45 minutes on ice, the plate was washed three times with a mixture of 0.1% BSA, 2 mM EDTA and PBS at 200 μL/well. The supernatant was removed and secondary antibody was added to the cell pellet at 50 μL/well followed by suspending the cells therein. AlexaFluor 647 goat anti-rat IgG (H-L) (Life Technologies Corporation) was used for the secondary antibody after diluting 400-fold with a mixture of 0.1% BSA, 2 mM EDTA and PBS. After allowing to react for 45 minutes on ice, the plate was washed three times with a mixture of 0.1% BSA, 2 mM EDTA and PBS at 200 μL/well. After removing the supernatant, 50 ng/mL of propidium iodide, 0.1% BSA, 2 mM EDTA and PBS were added to the cell pellet at 250 μL/well followed by suspending therein. The cells stained in this manner were measured using a flow cytometer such as the Guava easyCyte 8HT (Merck Millipore Corporation) followed by analysis of the resulting data using FlowJO (Tomy Digital Biology Co., Ltd.). FACS analysis was carried out using colon cancer, brain tumor and hematologic cancer.
(§1) Flow cytometry was carried out in accordance with the procedure described in the above-mentioned section 3. […] The supernatant of a culture of hybridoma producing rat IgM antibody clone 365 was used as a negative control after similarly diluting to 1 μg/mL. […] A mixture of RPMI and 10% FBS was used to dilute each of the antibodies. Furthermore, antibody concentration in the hybridoma culture supernatant was measured by rat IgM-specific ELISA (Bethyl Laboratories).

[3] = molecular target: T1, human transmembrane protein 180 …; assay: flow cytometry, DLD-1 parent line against TMEM-180 knockout line (considerable left shift in the knockout)
Description: After removing the supernatant, 50 ng/mL of propidium iodide, 0.1% BSA, 2 mM EDTA and PBS were added to the cell pellet at 250 μL/well followed by suspending therein. The cells stained in this manner were measured using a flow cytometer such as the Guava easyCyte 8HT (Merck Millipore Corporation) followed by analysis of the resulting data using FlowJO (Tomy Digital Biology Co., Ltd.). FACS analysis was carried out using colon cancer, brain tumor and hematologic cancer.
as §1

binding result [2]: binds
B4: anti-TMEM-180 antibody clone 212 (antibody, V domains shown)
VH: EVQLVESGGGLVQPGNSLKLSCAASGFTFSDYAMAWVRQSPKKGLEWVATIIYDGSSTYYRDSVKGRFTISRDNAKSTLYLQMDSLRSEDTATYYCATHWYWYFDFWGPGTMVTVSS
VL: DIQMTQSPASLSASLGETVSIECLASEGISNDLAWYQQKSGKSPQLLIYAASRLQDGVPSRFSGSGSGTRYSLKISGMQPEDEADYFCQQSYKYPLTFGSGTKLEIK
notes: Rat IgM

binding result [2]: binds
B5: rat IgM antibody clone 98 (antibody, V domains shown)
VH: QVQLKESGPGLVQPSQTLSLTCTVSGFSLTRYNVHWVRQPTGKGLEWMGVIWTGGSTDYNSALKSRLSISRDTSKSQVFLKMNSLQTEDIATYYCARDLGYWGQGVMVTVSS
VL: DIVMTQTPLSLSVAIGQSASISCKSSQSLKYRDGKTYLNWVFQSPGQSPKRLIYQVSKLDSGVPDRFSGTGSETDFTLKISRVEAEDLGVYYCCQGSYSPHTFGAGTKLELK
notes: Rat IgM from a hybridoma; also called 98 antibody; IgM 98

binding result [3]: binds
B6: rat-human chimeric antibody clone 98 (antibody, IgG1, V domains shown)
VH: QVQLKESGPGLVQPSQTLSLTCTVSGFSLTRYNVHWVRQPTGKGLEWMGVIWTGGSTDYNSALKSRLSISRDTSKSQVFLKMNSLQTEDIATYYCARDLGYWGQGVMVTVSS
VL: DIVMTQTPLSLSVAIGQSASISCKSSQSLKYRDGKTYLNWVFQSPGQSPKRLIYQVSKLDSGVPDRFSGTGSETDFTLKISRVEAEDLGVYYCCQGSYSPHTFGAGTKLELK
notes: Clone 98 variable regions on human constant regions (IgG1), expressed in 293T cells; also called human chimeric IgG1 antibody; human chimeric IgG antibody

The remaining lines, values behind:

B1: anti-TMEM-180 antibody clone 1052 (antibody, V domains shown)
VH: QVQLKESGPGLMQPSETLSLTCTVSGFSLTSNGVGWVRQPLGKGLVWMGTIWTGGGTNYNSGVQSRLSISRDTSKSQVFLKMNSLQPEDTGTYYCAREYMGFDYWGQGVMVTVSS
VL: NTVMTQSPTSMFTSVGDRVTMSCKASQNVGINVGWYQQKTGQSPKRLIYWASNRDTGVPDRFTGSGSGTDFTLTISNMQAEDPAIYYCLQHNSYPRTFGGGTKLELK
notes: Rat IgM; also called 1052 antibody
binding result [1]: binds

B2: anti-TMEM-180 antibody clone 1105 (antibody, V domains shown)
VH: QVQLKESGPGLMQPSETLSLTCTVSGFSLTSNGVGWVRQPLGKGLVWMGTIWSGGGTNYNSAVQSRLSITRDTSKSQVFLKMNSLQPEDTGTYYCAREEKGFAYWGQGTLVTVSS
VL: NIVMTQSPTSMSTSVGDRVTMSCKASQNVGINVGWYQQKTGQSPKRLIYWASNRDTGVPDRFTGSGSGTDFTLTISNMQAEDPAIYYCLQHNSYPRAFGGGTKLELR
notes: Rat IgM; also called 1105 antibody
binding result [1]: binds

B3: rat IgM antibody clone 101 (antibody, V domains shown)
VH: QVQLKETGPGLVQPTQTLSITCTVSGFSLTSYYMQWVRQTPGKGLEWMGFIRSGGSTEYNSEFKSRLSISRDTSKNQVFLKMNSLKTEDTGVYYCARAFYGGYYFDYWGQGVMVTVSS
VL: DIVMTQSPTSISISVGERVTMNCKASQNVGSNVDWYQQKTGQSPKLLIYKASNRYTGVPDRFTGSGSGTDFTFTISNMQAEDLAVYYCMQSNTKYTFGAGTKLELK
notes: Rat IgM
binding result [2]: binds
